Earlier results in paper PMC4105053.

Experiments:
[1] = target: MMOB (Methylococcus capsulatus) (UniProt P18797)
[2] = target: MMOR Fd (Methylococcus capsulatus) (UniProt P22868)
Sequence of MMOR Fd (Methylococcus capsulatus) (P22868 1-98): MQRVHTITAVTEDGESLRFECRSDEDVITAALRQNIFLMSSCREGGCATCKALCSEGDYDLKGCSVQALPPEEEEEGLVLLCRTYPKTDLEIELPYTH

Sequence of MMOH (P22869 whole entry): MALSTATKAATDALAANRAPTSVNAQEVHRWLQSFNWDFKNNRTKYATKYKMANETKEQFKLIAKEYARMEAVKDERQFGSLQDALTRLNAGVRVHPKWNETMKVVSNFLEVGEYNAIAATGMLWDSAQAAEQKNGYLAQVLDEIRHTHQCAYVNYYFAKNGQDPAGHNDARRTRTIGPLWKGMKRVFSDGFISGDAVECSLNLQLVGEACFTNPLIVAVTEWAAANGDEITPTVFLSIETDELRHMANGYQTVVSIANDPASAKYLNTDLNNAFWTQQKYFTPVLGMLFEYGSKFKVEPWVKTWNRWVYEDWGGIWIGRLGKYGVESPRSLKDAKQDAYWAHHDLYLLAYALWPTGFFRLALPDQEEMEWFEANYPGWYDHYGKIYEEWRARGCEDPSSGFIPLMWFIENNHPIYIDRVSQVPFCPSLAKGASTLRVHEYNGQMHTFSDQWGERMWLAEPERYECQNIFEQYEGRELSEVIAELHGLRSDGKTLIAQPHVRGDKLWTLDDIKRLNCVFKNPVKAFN
Sequence of MMOH (P18798 2-389, further chain): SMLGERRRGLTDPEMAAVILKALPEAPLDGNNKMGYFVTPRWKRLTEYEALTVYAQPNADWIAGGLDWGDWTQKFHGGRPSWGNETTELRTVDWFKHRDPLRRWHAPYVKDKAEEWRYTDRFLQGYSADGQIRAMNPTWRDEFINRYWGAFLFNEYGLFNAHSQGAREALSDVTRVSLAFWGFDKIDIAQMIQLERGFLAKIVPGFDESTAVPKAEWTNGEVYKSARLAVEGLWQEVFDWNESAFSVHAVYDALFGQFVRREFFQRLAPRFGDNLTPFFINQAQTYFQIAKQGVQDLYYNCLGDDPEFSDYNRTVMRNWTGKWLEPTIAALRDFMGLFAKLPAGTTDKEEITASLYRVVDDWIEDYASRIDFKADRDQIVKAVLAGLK
Sequence of MMOH (P11987 2-170, further chain): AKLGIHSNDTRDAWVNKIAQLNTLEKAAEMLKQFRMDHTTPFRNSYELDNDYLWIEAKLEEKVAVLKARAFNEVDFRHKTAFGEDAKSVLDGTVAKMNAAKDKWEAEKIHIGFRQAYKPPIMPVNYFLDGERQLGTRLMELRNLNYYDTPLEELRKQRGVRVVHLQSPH
Sequence of MMOB (Methylococcus capsulatus) (P18797 whole entry): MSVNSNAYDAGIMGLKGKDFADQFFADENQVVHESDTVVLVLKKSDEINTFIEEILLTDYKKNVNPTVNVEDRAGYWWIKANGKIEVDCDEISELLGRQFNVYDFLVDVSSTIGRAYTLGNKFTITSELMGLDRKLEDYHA

Kd [1]: 0.55 µM | Kd [2]: 0.9 µM
Substance: MMOH (from UniProt P22869)
